Laboratory results as given in patent US20100143376A1 (RIBOVAX BIOTECHNOLOGIES S A, published 2010).

Target: T1, Bovine Serum Albumin (bovine, UniProt P02769 25-607)
T1 construct: also called BSA
Experiment: ELISA, antigen coated on plate, phage-displayed Fab

T1 sequence (P02769 25-607 limits assumed): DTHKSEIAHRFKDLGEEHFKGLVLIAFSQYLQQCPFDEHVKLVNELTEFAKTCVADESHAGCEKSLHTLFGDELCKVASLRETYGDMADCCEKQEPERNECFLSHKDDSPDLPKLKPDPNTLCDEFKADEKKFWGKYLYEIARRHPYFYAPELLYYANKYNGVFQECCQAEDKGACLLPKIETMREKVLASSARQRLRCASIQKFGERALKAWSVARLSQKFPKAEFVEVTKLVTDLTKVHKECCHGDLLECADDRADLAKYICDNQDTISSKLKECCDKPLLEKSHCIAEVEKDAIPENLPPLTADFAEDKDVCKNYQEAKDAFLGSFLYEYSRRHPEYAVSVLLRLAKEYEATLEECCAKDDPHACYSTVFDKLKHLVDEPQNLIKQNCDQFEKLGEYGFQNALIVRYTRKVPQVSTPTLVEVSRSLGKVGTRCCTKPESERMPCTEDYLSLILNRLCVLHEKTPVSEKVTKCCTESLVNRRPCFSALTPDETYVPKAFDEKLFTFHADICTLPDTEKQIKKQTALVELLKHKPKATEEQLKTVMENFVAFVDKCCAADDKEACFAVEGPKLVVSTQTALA

B1: human Fab DDF-RuV2 (Fab, V domains shown)
VH: LESGGGVVQPGRSLRLSCAASGFTFSTYGMHWVRQAPGKGLEWVAVVSYDGTKEYYSDSVKGRFTISRDNSKKMVYLQMNSLRAEDTAVYYCAKEPPRRGFYWYFDYWGQGTLVTVSS
VL: ELTQSPSSLSASVGDRVTITCRASQDISNYLAWFQQRPGKVPNLLIYAASTLQSGVPSRFSGSGSGTEFTLTISSLQPEDGASYYCQKYDGAPWTFGQGTKVEIKR
B1: no binding.

B2: human Fab DDF-RuV1 (Fab, V domains shown)
VH: LEQSGAEVKKPGENLKISCEASGYNFVNHWIGWVRQMPGRGLEWMGRIYPGDSETRFSPSFQGQVTISVDKTLSTASLQWNSLKTSDSATYYCVTLGRWSSWQGGALSWGQGTRVIVSS
VL: ELTQSPDSLAVSLGERATINCKSSQSILSTSKNKNYLAWYQQKPGQPPKLLIYWASTREDGVPDRFSGSGAGTDFSLTISSLQAEDVAVYYCQQRRSWPPTFGQGTKLEIKR
B2: no binding.
